One experiment addresses T1, Rabbit muscle actin (Oryctolagus cuniculus, UniProt P68135).
T1 construct: Rabbit muscle actin (A2522, Sigma-Aldrich, St Louis, Mo.); purchased Sigma-Aldrich, St Louis, Mo; A2522; host or cells: rabbit muscle (tissue-derived)
Briefly: Peptide array screen for actin binding. The settings on record: peptides on cellulose membrane; 5 μM actin; densitometry relative to K108-K133. The protocol: The peptides were acetylated at their N-termini and attached to a cellulose membrane via their C-termini through an amide bond. Peptide array (INTAVIS Bioanalytical Instruments AG, Koeln, Germany).
The array was immersed in 5 ml blocking solution (TBST containing 2.5% milk) for 4 hours with shaking, then washed once with blocking solution (30 sec.) and twice with TBST (5 min. each). 5 μM actin were dissolved in the blocking solution (˜1:3), and incubated with the array at 4° C. with shaking overnight. After washing with TBST (1×30 sec. and 2×5 min.) the array was incubated first with rabbit anti actin antibody diluted 1:100 in blocking solution for 4 hours at room temperature followed by washings three times with TBST (1×30 sec. and 2×5 min.). The array was then incubated with horseradish peroxidase-conjugated goat anti rabbit IgG antibody diluted 1:10,000 in blocking solution at room temperature for 2 hours followed by washing with TBST (1×30 sec. and 2×5 min.). Immunodetection was performed using chemiluminiscence with ECL reagents.
The modifications included an alanine scan, truncations and systematic replacements of each residue in each peptide by the corresponding D-amino acid residue and N-methylated residue, C terminal truncations and N terminal truncations. The array was screened for binding the actin protein.

The subject of experiment [1] is chick Chorio-Allantoic Membrane (CAM). Description: Ex ovo CAM angiogenesis assay. It counts as in vivo, chicken. The following applies: 3 μg on paper disk daily for four days from day 8; compared to PBS control. The protocol: In this assay, in-vivo angiogenesis is assessed on live chick embryos grown in petri dishes. Fertilized eggs are cracked into a petri dish after a few (e.g. 3) days incubation at appropriate temperature (e.g. 37° C.) and humidity. In the following days, the embryos developed a vascular network, which can then easily be exposed to any treatment or combination of treatments, for example, via delivery onto absorbent disks placed on/about the developing vascular regions. Angiogenesis is scored by periodically (e.g. 1×/day, 2×/day, 1×/2 days, 1×/4 days, etc) counting the number of blood vessels around the disk.
Fertilized chicken eggs were incubated horizontally at 37° C. and humidity of 60-62% and cracked into Petri dishes at embryonic day 4. Incubation was continued under the same conditions. […] Treatment was given every day for four days, then, the number of blood vessels around the treated disks was counted.

The target in the next experiment is actin (Oryctolagus cuniculus, UniProt P68135). Briefly: Surface plasmon resonance (BIAcore) of actin binding. The settings on record: actin on CM5 chip, 25° C. How it is done: SPR was performed on a BIAcore 3000 instrument (BIAcore, Uppsala, Sweden). Actin was diluted in 100 mM CH3COONa pH 4.6 to a final concentration of 20 μg/ml (200 μl total) resulting in ˜1 ng immobilized actin on a CM5 BIAcore sensor chip (GE Healthcare Bio-Sciences AB) using the standard BIAcore amine coupling chemistry protocol. The CM5 chip allows four separate flow cells to be operated in the BIAcore 3000 instrument used in these experiments. Coupling is achieved by activating the surface of the sensor chips with equal volumes of 50 mM N-hydroxysuccimide (NHS)/200 mM Nethyl-N-(3-[…])-carboiimide (EDC) (BIAcore, AB, Uppsala, Sweden) to form activated carboxyl groups. An actin solution […] was run over the chip for 5 min at a rate of 10 μl/min, allowing the amine groups on the protein to react with the activated esters. In the final stage of immobilization, the surface was blocked by 1M ethanol amine, pH 8.0. The binding assay was performed by injecting the hRNASET2, trT2-49, trT2-49m or peptides solutions in running buffer (HBS—10 mM Hepes, 150 mM Sodium Chloride, 3 mM EDTA, 0.005% Polysorbate 20) at 5 different concentrations at a flow rate of 10 μl/min at 25° C. Injections were performed simultaneously over all four channels and blank surface (a plain dextran matrix, channel 1) was used as control. The net signal was obtained by subtracting the blank signal from the signal of the immobilized surface. The association phase for protein or peptides binding to actin was followed for 4 min, and dissociation phases were monitored for 3 min. Surface regeneration between consecutive binding cycles included a 1 min injection of 1 mM NaOH. The response was monitored as a function of time (sensorgram) at 25° C. Multi-concentration data were globally fit using BIA evaluation 3.2 software.
The strength of a two molecule interaction is characterized by the equilibrium dissociation (binding) constant KD=[P][L]/[PL], where [P] is the concentration of free protein (or peptide), [L] the concentration of ligand and [PL] the concentration of the complex. […]
A general note: SPR reads the build-up and loss of mass on a sensor chip optically.

The target in experiment [2] is T2, G-Actin from rabbit muscle (Oryctolagus cuniculus, UniProt P68135).
T2 construct: G-Actin from rabbit muscle; purchased Sigma-Aldrich, St Louis, Mo; host or cells: rabbit muscle (tissue-derived)
Description: ELISA actin binding assay (solid-phase, immobilized actin). The following applies: immobilized G-actin 500 ng/well. How it is done:
Peptides corresponding to a variety of amino acid sequences in the region of human RNASET2 comprising helix 5 and helix 6 were synthesized and assayed for actin binding in an ELISA actin binding assay.
Solid-phase ELISA for RNASET2 peptide binding to immobilized actin was performed as modified from Mejean 1987 (Biochem. J. 244: 571-577) and Mejean 1992 (Eur. J Biochem. 209: 555-562). All steps were conducted at 37° C. Immuno-96 Microwell™ solid plates (Thermo Fisher Scientific, MA) coated with 500 ng/well of G-Actin from rabbit muscle (Sigma-Aldrich, St Louis, Mo.) in 100 ul of 0.05 M carbonate buffer, pH 9.5 (Sigma-Aldrich, Mo), incubated for 1 h and washed with 250 ul/well Tris Buffered Saline (TBS) (Sigma-Aldrich). The wells were blocked with 3% bovine serum albumin (BSA, Sigma-Aldrich) in 200 ul/well TBS for another 1 hour and washed with 250 ul/well TBS. The candidate peptides are then added at various concentrations (for example, serial dilutions giving 500, 250 or 125 ng/well) in 100 ul/well Tris Buffered Saline (TBS), incubated for 1 hour and washed 3 times with 250 ul/well TBS containing 0.05% Tween®20 (TBST, Sigma-Aldrich). Anti-T2 RNase (rabbit anti-rhtrRNASET2, Anilab, Israel, whole serum or antiserum) was then added, incubated for 1 hour and the plates washed 3 times with 250 ul/well TBST. Labeled second antibody [peroxidase-conjugated affinity pure goat-anti rabbit IgG (Jackson, Pa.)] was added at a dilution of 1:10:000 in 100 ul/well TBS, incubated for 1 hour and the plates washed twice with 250 ul/well TBST. After an additional wash with 250 ul/well TBS, 1-Step Ultra TMB-ELISA (TMB-3,3′,5,5′ Tetramethylbenzidine) (Thermo-Scientific) was added (100 ul/well) and after 15-25 min of incubation, the reaction was read at A650 using Infinite F50-TECAN ELISA READER (TECAN, Austria). Each assay was performed in triplicates.
Background: An ELISA detects its analyte on a solid surface through an enzyme-linked reagent.

The next experiment has as its system HUVEC. Briefly: HUVEC tube formation assay on Matrigel. It counts as cell-based, human. The following applies: angiogenin or VEGF induced; 2 μM peptide. The protocol: FIGS. 6A-6D illustrate in-vitro inhibition of angiogenesis in the HUVEC model by T2 peptides. HUVEC cells plated on Matrigel™ were exposed to 2 μM of T2 peptides A103-Q159 (SEQ ID NO: 60), K108-K133 (SEQ ID NO: 57) or K108-L123 (SEQ ID NO: 67), in addition to 1 μg/ml of angiogenin or VEGF as the angiogenic agent, as indicated. Control wells received PBS. FIG. 6B-Results were assessed by imaging software, and quantified, and expressed relative to tube formation with angiogenin or VEGF alone (100%) Column 1=angiogenin, column 2=angiogenin+SEQ ID NO: 60, column 3=angiogenin+SEQ ID NO: 57, column 4=angiogenin+[…], Column 5=VEGF, column 6=VEGF+SEQ ID NO: 60, column 7=VEGF+SEQ ID NO: 57, column 8=VEGF+[…]. FIGS. 6C and 6D illustrate the inhibitory effect of truncated human T2 polypeptide trT2-49m (SEQ ID NO: 129) on angiogenin and VEGF induced HUVEC tube formation. Note the significant inhibition of HUVEC tube formation by all of the T2 peptides assayed, and in particular, K108-K133 (SEQ ID NO: 57);
HUVEC (CC-2519)(fresh or commercially provided) are maintained in M199 rrrediurn supplemented with 20% FCS, 1% glutamine, 1% antibiotic-antimycotic solution, ECGF, and heparin, plated in a 96-well plate (14×10^3 cells/well) previously coated with growth factor-depleted Matrigel™ (BD Biosciences), in M199 medium containing 5% FCS and 0.005% ECGF. The wells are supplemented with candidate T2 RNase peptides or PBS, and angiogenic growth factors (1 μg/ml angiogenin, bFGF or VEGF) to a final volume of 120 pl. Plates are incubated (overnight), photographed and the extent of tube formation (angiogenesis) assessed.

On to KKYFGRSLEL [SEQ ID NO: 131], for which the “actin binding of immobilized peptides” value with Rabbit muscle actin is “significant actin binding”.

Take KKYFGRSLELYR [SEQ ID NO: 62]: the “actin binding of immobilized peptides” value with Rabbit muscle actin is given as “significant actin binding”.

As for LYREL [SEQ ID NO: 132], in the experiment with Rabbit muscle actin, the “actin binding of immobilized peptides” value was “significant actin binding”.

Regarding “SEQ ID NO: 1: mature full length human RNASET2, T2 family ribonuclease”, the “inhibition of angiogenesis (number of blood vessels around disk)” value in experiment [1] is “effective in inhibiting angiogenesis”. The “Ka × 10^3” value with actin is reported as 1.44 ×10^3 1/Ms.

Consider “SEQ ID NO: 63: peptide representing amino acids 103-141 of RNASET2 (ALNSQKKYFGRSLELYRELDLNSVLLKLGIKPSINYYQV)”, for which the “actin binding on ELISA” value in experiment [2] is on record as “moderate”.

For “SEQ ID NO: 67: peptide K108-L123 of human RNASET2, 16 aa”, the “inhibition of HUVEC tube formation” value with HUVEC is given as “unable to inhibit tube formation”.

These data come from US20160340659A1, “ACTIN BINDING PEPTIDES AND COMPOSITIONS COMPRISING SAME FOR INHIBITING ANGIOGENESIS AND TREATING MEDICAL CONDITIONS ASSOCIATED WITH SAME” (YISSUM RESEARCH AND DEVELOPMENT COMPANY OF THE HEBREW …, priority 2014, published 2016).
